From the RNAGym collection of RNA variant scans (doi:10.1073/pnas.2313332121)
Fewer inactive variants are shown than the library holds.

B1: TPR 5TU (parent)
chain: GGAUCUUCUCGAUCUAACAAAAAAGACAAAUCUGCCACAAAGCUUGAGAGCAUCUUCGGAUGCAGAGGCGGCAGCCUUCGGUGGCGCGAUAGCGCCAACGUUCUCAACUAUGACACGCAAAACGCGUGCUCCGUUGAAUGGAGUUUAUCAUG

Variants of: B1
Assay: polymerase ribozyme fitness, log enrichment relative to wild type (log ratio); higher = more active; in vitro selection for triplet polymerase activity
Procedure, shortened: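 After PCR construction and transcription, each subunit's mutant library from a heterodimeric triplet polymerase ribozyme was annealed with a biotinylated primer, the partner subunit and triplets. Incubation was frozen, at −7 °C, and extended constructs were gel-excised, bound to streptavidin beads and amplified by RT-PCR, in one selection round done in triplicate. Fitness is the logarithm of a genotype's enrichment divided by that of the wild type, from inverse-variance-weighted replicate averages of Illumina-sequenced inputs and outputs. The base of the logarithm is 2, and genotypes needed ≥10 input reads and ≥1 read per output.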

Row | Variant | polymerase ribozyme fitness (log ratio)
1 | C10G A20U A52C G86A G92U A115U G152A | ≤ -4.2
2 | C10A C32G U44G C57U U82G G83A | ≤ -4.2
3 | C10G U31A U44C C57A G59U U61G G92C A107U | ≤ -4.2
4 | C10U A19G U33A C79U C93U | ≤ -4.2
5 | C10A C14G U77A C85A G92A A110G A122G | ≤ -4.2
6 | C10U A16C A23U G62C A64G G83C U102G C114U U127G | ≤ -4.2
7 | C10A C69U | ≤ -4.2
8 | G11C A23G A91G C95U A121G | -3.82
9 | C10G U13A A23U C32A A41G G71C C87U C105U A115U | ≤ -4.2
10 | C10G A22G A39U U109C | ≤ -4.2
11 | C10U A91U C96A A98U A142G U151C | ≤ -4.2
12 | C10A A23C G50A C75G C95U C96A C123G | ≤ -4.2
13 | C10G A91G A97G C108A C118G | ≤ -4.2
14 | C10A A23C G25C G92A A113U | ≤ -4.2
15 | C10U U45A C54A G71C G136U | ≤ -4.2
16 | C10A C85U G133C U134A U146G | ≤ -4.2
17 | C10G A30C G92U A107G U148C A150U | ≤ -4.2
18 | C10U C51G A52U C87A C123U G141C | ≤ -4.2
19 | G11A A21G A23C C54U G70C C76A G83U | ≤ -4.2
20 | C10A A28U G58A C96U A122G G124C | ≤ -4.2
21 | C10A C79A A97G A150G | ≤ -4.2

Row | Variant | polymerase ribozyme fitness (log ratio)
22 | C10U C38U G80A G94C C125A G143A | ≤ -4.2
23 | C10G A12G A120U U135C | ≤ -4.2
24 | C10U G11U A29C U44G U55A G68A G71U G80A C93A A98U A138C | ≤ -4.2
25 | C10U C14U A17C U56A U134A A137U U151C | ≤ -4.2
26 | C10G G11U U15C G84A G88U | ≤ -4.2
27 | G11C A37C U55G C93A C99G G124U C149U | ≤ -4.2
28 | C10G C27U U61A C99A | ≤ -4.2
29 | C10U C32U G68U G74A U78A G92A C125A G140U U145G | ≤ -4.2
30 | C10U G65A G92A | ≤ -4.2
31 | C10U C35U A47C C85A A89C C93U C95U | ≤ -4.2
32 | G11A U15G A107G G141C U144C U145A G152A | ≤ -4.2
33 | C10A U13C A30C G83A G88A A98U C125A A147G | ≤ -4.2
34 | C10U C14G C76U A106G A107G C108U | ≤ -4.2
35 | C10A G42C U44A U53A C85A A122C | ≤ -4.2
36 | C10A C51U C93U U111G | ≤ -4.2
37 | C10G U15G A23C G62C A97C C125U | ≤ -4.2
38 | C10A U56G C57G G59A C79U G83C C99G | ≤ -4.2
39 | C10U G42C C69A C95G A142G A150G | ≤ -4.2
40 | C10U A23G G50U U53A G71C C87A A120U | ≤ -4.2
41 | G11A U31A | -0.715
42 | G11A A16U A24U C85A A142C | ≤ -4.2

Row | Variant | polymerase ribozyme fitness (log ratio)
43 | C10G A41C A73U U134A | ≤ -4.2
44 | G11A A39U A40C G100C | ≤ -4.2
45 | G11A A41U A52U U55A C118U | ≤ -4.2
46 | G11A C14U U33G U44A C69A C79A C85U A97U | ≤ -4.2
47 | C10A G50A A60G G86A G133C | ≤ -4.2
48 | C10A G81C | ≤ -4.2
49 | C10G A29U C95U C108A G117A G143C | ≤ -4.2
50 | C10G C85U A91C C105A | ≤ -4.2
51 | G11A C43G U90C G94A | -4.13
52 | C10A C95U | -3.57
53 | C10A A24C G71A U77G G94A C99A C125U G140C | ≤ -4.2
54 | G11A G48C G92U | -0.981
55 | C10U A16G G84U G140U | ≤ -4.2
56 | C10A U31C G46A C69G G80A U82A G86A C99U G100U G141A | ≤ -4.2
57 | G11C A47C U55A G81A C87G A120U U144A | ≤ -4.2
58 | C10A C85G C125A | ≤ -4.2
59 | C10A A39U G86C U109G U130C | ≤ -4.2
60 | G11C C35U A52C A60G | ≤ -4.2
61 | C10U C14G A28U G58C U61C G70C C76G C96U A138G G140U C149G | ≤ -4.2
62 | G11A G25C G50A A52G C75G U90G C103U U144A | ≤ -4.2
63 | G11A A12G C38U A41U C69U G83U | -3.51

Row | Variant | polymerase ribozyme fitness (log ratio)
64 | C10G U53A C57U G86C A106G C108G A113G U127G | ≤ -4.2
65 | G11C A66U C96A C108G | ≤ -4.2
66 | G11A A21U C51U U53A U55G C57U C96A A110C | ≤ -4.2
67 | G11A C54U U61A C95A C149G | ≤ -4.2
68 | C10U A41U G92C U139G | -4.06
69 | C10G U55G C103A | ≤ -4.2
70 | C10U G50C A64C G65C C93A A142U | ≤ -4.2
71 | C10U A47U G59C A60G G62A A110U G141C U145A U148A | ≤ -4.2
72 | G11A A28U C32U A47U C79A | ≤ -4.2
73 | C10G C36U G70C C79A C95G A115U | ≤ -4.2
74 | G11A A17G U31A U53G C54U A64G | ≤ -4.2
75 | C10A A23U C35G C95G G128A | ≤ -4.2
76 | C10U C32U A49C U134C | ≤ -4.2
77 | C10G G34U C85A | ≤ -4.2
78 | C10U U44A U102G A119C A121G A137C G143A | ≤ -4.2
79 | C10G U44G A49C A52C A64C G74C U104G A122G G141A | ≤ -4.2
80 | C10G A17C C36U G48A A64U G88C C118G | ≤ -4.2
81 | G11C C14G C93U C125A | ≤ -4.2
82 | C10G U77A C93U U144G | ≤ -4.2
83 | C10G G92C U111A C114A | ≤ -4.2
